What is called Ki is the dissociation constant of the complex between target and ligand, obtained from inhibition or displacement. A low value points to higher affinity.

The experiment addresses T1, FtsY (bacterial SRP receptor), wild type, as used in the GTPase assays (Escherichia coli, UniProt P10121 1-497).
T1 sequence (looked up): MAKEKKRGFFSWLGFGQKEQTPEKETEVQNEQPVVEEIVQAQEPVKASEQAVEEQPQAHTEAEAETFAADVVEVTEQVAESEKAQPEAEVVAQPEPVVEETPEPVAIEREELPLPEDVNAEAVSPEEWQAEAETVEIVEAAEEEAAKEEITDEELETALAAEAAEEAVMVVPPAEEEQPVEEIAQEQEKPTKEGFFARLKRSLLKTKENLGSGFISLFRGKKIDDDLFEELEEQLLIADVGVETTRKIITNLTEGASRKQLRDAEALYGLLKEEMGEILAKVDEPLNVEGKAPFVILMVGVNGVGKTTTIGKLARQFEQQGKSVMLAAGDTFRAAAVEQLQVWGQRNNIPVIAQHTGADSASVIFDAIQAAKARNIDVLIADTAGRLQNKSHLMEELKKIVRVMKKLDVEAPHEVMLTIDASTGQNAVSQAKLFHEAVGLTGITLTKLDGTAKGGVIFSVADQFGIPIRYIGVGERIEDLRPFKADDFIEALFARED
Kind of experiment: GTPase inhibition.

B1: SRP with Ffh A144W (bound to the 4.5S SRP RNA) (natural protein, Escherichia coli, UniProt P0AGD7 1-453, looked up)
chain: MFDNLTDRLSRTLRNISGRGRLTEDNVKDTLREVRMALLEADVALPVVREFINRVKEKAVGHEVNKSLTPGQEFVKIVRNELVAAMGEENQTLNLAAQPPAVVLMAGLQGAGKTTSVGKLGKFLREKHKKKVLVVSADVYRPAWIKQLETLAEQVGVDFFPSDVGQKPVDIVNAALKEAKLKFYDVLLVDTAGRLHVDEAMMDEIKQVHASINPVETLFVVDAMTGQDAANTAKAFNEALPLTGVVLTKVDGDARGGAALSIRHITGKPIKFLGVGEKTEALEPFHPDRIASRILGMGDVLSLIEDIESKVDRAQAEKLASKLKKGDGFDLNDFLEQLRQMKNMGGMASLMGKLPGMGQIPDNVKSQMDDKVLVRMEAIINSMTMKERAKPEIIKGSRKRRIAAGCGMQVQDVNRLLKQFDDMQRMMKKMKKGGMAKMMRSMKGMMPPGFPGR
B1: the Ki came out at 260 nM.

These data come from paper PMC2064468 (The Journal of Cell Biology, 2007).
